# Data reported in patent US7108990B2, “Chemokine receptor” (ChemoCentryx, Inc., priority 1999, dated 2006).
# “Also recorded” adds a separate entry of the source. Like-named read-outs stand apart in the source and are kept apart here.
# B1: murine CTACK: murine chemokine CTACK, also referred to as CCL27, ALP, ILC, and ESkine (protein)
# chain: LPLPSSTSCCTQLYRQPLPSRLLRRIVHMELQEADGDCHLQAVVLHLARRSVCVHPQNRSLARWLERQGKRLQGTVPSLNLVLQKKMYSHPQQQN
# B2: TECK: thymus expressed chemokine, recombinant (protein)
# chain: QGVFEDCCLAYHYPIGWAVLRRAWTYRIQEVSGSCNLPAAIFYLPKRHRKVCGNPKSREVQRAMKLLDARNKVFAKLHHNTQTFQAGPHAVKKLSSGNSKLSSSKFSNPISSSKRNVSLLISANSGL
# B3: mMIP-1gamma: murine chemokine MIP-1γ (protein)
# chain: QITHATETKEVQSSLKAQQGLEIEMFHMGFQDSSDCCLSYNSRIQCSRFIGYFPTSGGCTRPGIIFISKRGFQVCANPSDRRVQRCIERLEQNSQPRTYKQ
# B4: vMIP-II: virally-encoded chemokine from the human Kaposi's sarcoma herpesvirus HHV8 (protein)
# chain: LGASWHRPDKCCLGYQKRPLPQVLLSSWYPTSQLCSKPGVIFLTKRGRQVCADKSKDWVKKLMQQLPVTAR
# Experiments:
# CCX CKR [1] = molecular target: T1, CCX CKR (Homo sapiens, UniProt Q9NPB9); experiment: Adhesion of HEK293-CCX CKR cells to immobilized stalkokines and competition by soluble chemokines; type: cell-based; conditions: soluble recombinant chemokine 5–10 ug/ml
# T1 construct: Full length CCX CKR expression constructs were made in pIRESpuro expression vector; expressed in transfected cells
# T1 sequence (Q9NPB9 1-350): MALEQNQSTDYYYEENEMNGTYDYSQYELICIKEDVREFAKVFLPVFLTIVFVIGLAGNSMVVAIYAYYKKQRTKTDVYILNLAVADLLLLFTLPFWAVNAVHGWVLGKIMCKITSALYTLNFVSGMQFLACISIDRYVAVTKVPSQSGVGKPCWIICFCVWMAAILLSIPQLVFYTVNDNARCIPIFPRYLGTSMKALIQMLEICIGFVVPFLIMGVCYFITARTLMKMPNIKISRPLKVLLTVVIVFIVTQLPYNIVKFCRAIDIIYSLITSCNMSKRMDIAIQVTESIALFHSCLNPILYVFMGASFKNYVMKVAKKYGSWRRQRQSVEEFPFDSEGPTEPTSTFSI
# From the text: “Stalkokine” technology was used to identify the chemokines bound by the CCX CKR. Briefly, immobilized native chemokines alone are incapable of capturing cells bearing cognate receptors (Imai et al., 1997, Cell 91:521). We have developed non-native chemokine structures, stalkokines, comprising chemokine moieties engineered as N-terminal attachments to extended modified mucins (Bazan et al., 1997, Nature 385:640). In one embodiment, stalkokines, harvested in the supernatants of HEK293 cells after transient transfection, are anchored to solid substrates via antibodies against carrier domains (e.g. poly-His epitopes) engineered to the carboxyl terminus, leaving the chemokine domain free to interact with candidate orphan receptors.
# To determine ligand binding to CCX CKR, HEK293-CCX CKR cells were used to interrogate chemokine ‘stalkokines’ (SK), i.e., molecules in which discrete chemokine domains were engineered to be tethered to the end of an extended stalk structure. Stalkokines were interrogated using 8-well chamber slides coated first with anti-His anchoring antibody (10 ug/ml in PBS overnight at RT), which were washed and ‘blocked’ (2% FBS/0.5% BSA in PBS); treated with 250 ul of HEK293 cell stalkokine supernatants (1 hr at 37 C), and incubated with 500,000 HEK293-CCX CKR transfectants (1.5 hrs at RT). Inhibition of adhesion by competition with soluble chemokines was done by incubating cells with 5–10 ug/ml of recombinant chemokines. In all cases, nonadherent cells were removed by washing in PBS; remaining adherent cells were fixed with 1% glutaraldehyde, photoimaged and counted. As a primary screen this adhesion would reveal putative receptor-ligand interactions.
# CCX CKR [2] = molecular target: T1, CCX CKR; experiment: Small molecule screen: inhibition of 125I-ELC binding to HEK293 cells stably expressing CCX CKR; conditions: for effect on binding between ELC and CCX CKR: 125I-ELC ~25–100 pM, compounds 1–5 μg/mL, HEK293-CCX CKR cells, 3 hours at 4° C.; for type of modulator of CCX CKR function: Table 1, exemplary small molecule modulators of CCX CKR binding to ELC
# Procedure: Source plates of chemical libraries were obtained from commercial vendors and contained individual compounds at 5 mg/mL in DMSO, or in some instances, at 1 mg/mL. From these, multiple compound plates containing 10 compounds in each well were made, and these were diluted in 20% DMSO to a concentration of 50 μg/mL (10 μg/mL for those beginning at 1 mg/mL). An aliquot of 20 μL of each mixture was put into the test plates, which were stored frozen until use.
# HEK293 cells stably expressing the M1 flag epitope-tagged CCX CKR (described in Example 3, supra) were cultured in DMEM-10% FBS, and harvested when the concentration was between 0.5–1.0×10^6 cells/mL. The cells were centrifuged and resuspended in assay buffer (20 mM HEPES, 80 mM NaCl, 1 mM CaCl2, 5 mM MgCl2, and with 0.2% bovine serum albumin, pH 7.4) to a concentration of 5.6×10^6 cells/mL.
# Using a Multi-Probe automated system, 0.09 mL of cells was added to each well of the assay test plates containing the compounds, followed by 0.09 mL of ^125I-MIPβ3/ELC (from Amersham Pharmacia Biotech) diluted in assay buffer (final concentration ˜25–100 pM, with ˜50,000 cpm per well). The final concentration of the compounds was 1–5 μg/mL each. The plates were sealed and incubated for approximately 3 hours at 4° C. on a shaker platform. The assay plates were harvested using Packard GP/B filter plates, pre-soaked in PEI solution, on the vacuum harvest apparatus. Scintillation fluid (50 μL) was added to each of the wells, the plates were sealed and counted in a Top Count scintillation counter. Control wells contained either diluent only (for total counts) or excess ELC (1 μg/mL, for non-specific binding) and were used to calculate the percent of total inhibition of ELC binding for each set of compounds.
# CCX CKR [3] = molecular target: T1, CCX CKR; experiment: Radioligand binding competition (DisplaceMax) to CCX CKR stable transfectants with Scatchard transformation
# From the text: In one embodiment, binding is detected as described by Dairaghi et al., 1997, J. Biol. Chem. 272:28206–209 (incorporated by reference in its entirety for all purposes) substituting CCX CKR transfectants for the CCR3 transfectants). In one embodiment, binding is detected using the filter based technique described by Dairaghi et al., 1999, J. Biol. Chem. 274:2156 (incorporated by reference in its entirety for all purposes), e.g., as shown in FIG. 4. Briefly, this technology employs expanded, efficiency-maximized radioligand binding utilizing filtration protocols. In these assays, 1×10^5 CCXCKR-293 HEK cells are incubated with ^125I-labeled ELC (MIP3beta) (final concentration of ˜0.05 nM) in the presence of unlabeled chemokine for 3 h at 4° C. in 25 mM HEPES, 140 mM NaCl, 1 mM CaCl2, 5 mM MgCl2, and 0.2% bovine serum albumin, adjusted to pH 7.1. Reactions were aspirated onto PEI-treated GF/B glass filters using a cell harvester (Packard). Filters are washed twice (25 mM HEPES, 500 mM NaCl, 1 mM CaCl2 5 mM MgCl2, adjusted to pH 7.1) and scintillant (e.g., MicroScint 20; 50 μl) is added to dried filters and counted (e.g., using a Packard Topcount scintillation counter). The competition dose-response curves is analyzed by standard methods to determine IC50 values (e.g., using GraphPad Prism software (San Diego, Calif.)). Additionally, a Scatchard transformation can be used to estimate the receptor sites per cell (e.g., using WaveMetrics Igor software (Lake Oswego, Oreg.)).
# (§1) Binding analysis was carried out using efficiency-maximized radioligand binding utilizing filtration protocols designated “Displace Max” (Dairaghi et al., 1999, J. Biol. Chem. 274:21569). In these assays, DisplaceMax employed the simultaneous interrogation of CCX CKR transfectants by >80 distinct purified chemokines in the ability to displace radiolabeled ELC or TECK, using the protocol described (Dairaghi et al., 1999, J. Biol. Chem. 274:21569).
# The binding interactions identified in the primary screen were examined quantitatively by extensive radioligand binding competition to CCX CKR stable transfectants and Scatchard transformation of the displacement data (FIG. 4B). […] In each case, the murine versions of these chemokines also bound, and with even greater affinity; the apparent Kd's are listed in FIG. 4B. […] In similar experiments, murine CTACK bound the receptor with a Kd of ˜9 nM (not shown). CTACK is also referred to as CCL27, ALP, ILC, and ESkine.
# CCX CKR [4] = molecular target: T1, CCX CKR; experiment: Ligand binding fingerprint: cold chemokines competing against 125I-ELC on CCX CKR stable transfectants; conditions: cold competitor at 200 nM; human and murine chemokines
# From the text: In order to rapidly and thoroughly define a given chemokine receptor's ligand binding fingerprint, we have established an approach to comprehensively profile chemokine receptors using a large array of purified chemokines and chemokine variants. We used this approach to confirm independently the interaction of ELC and other chemokines with CCX CKR. Employing radioligand binding of ^125-labeled-ELC or ^125-TECK to CCX CKR stable transfectants, chemokine specificity for the new receptor was determined.
# as §1
# CCX CKR [5] = molecular target: T1, CCX CKR; experiment: Ligand induced internalization of Flag-CCX CKR in 293 cells (FACS); type: cell-based; conditions: 100 nM chemokine, 37° C., 15 or 45 minutes, 293 F-CCR10 cells
# Procedure: 293 cells transfected with the Flag-CCX CKR fusion plasmid (i.e., “293 F-CCR10 cells;” see Example 3) were incubated at 37° C. with varying concentrations of chemokines (ELC, SLC, TECK, murine CTACK and MCP-4) for 15 or 45 minutes. Following incubation, the cells were washed and fixed with 3% paraformaldehyde for 15 minutes on ice. The cells were stained with anti-Flag M1 antibody, followed by a PE-conjugated anti-mouse secondary antibody. FACS analysis were then carried out to determine surface expression of the receptor.
# Results: A reduction in antibody binding in the presence of ligand is an indication of ligand-induced internalization of the receptor.
# CCX CKR [6] = molecular target: T1, CCX CKR; experiment: Homologous competition binding assay with radiolabeled chemokine on HEK293-CCX CKR cells; conditions: HEK293-CCX CKR cells versus wildtype HEK293 cells
# From the text: Furthermore ELC-SK mediated adhesion was abolished in the presence of soluble native ELC as a competitor (FIG. 3A, top row). […] Moreover, radiolabeled ELC was used in a traditional homologous competition assay in the presence of increasing concentrations of unlabeled ELC. […] Taken together, the stalkokine-based adhesion and radiolabeled ligand binding/homologous competition assays indicate that CCX CKR is a new chemokine receptor that bound a novel compliment of chemokines.
Molecule,effect on binding between ELC and CCX CKR (CCX CKR [2]),type of modulator of CCX CKR function (CCX CKR [2]),"affinity of binding to CCX CKR, in words (CCX CKR [3])",competition with 125I-labeled ELC binding to CCX CKR (fingerprint) (CCX CKR [4]),internalization of CCX CKR (CCX CKR [5]),further results
"MCP-3: chemokine, representative of many non-competing chemokines",,,,,,effect of soluble chemokine on ELC-SK mediated adhesion of HEK293-CCX CKR cells (CCX CKR [1]): no diminution in adhesion
CC1CCCCN1CCCN(Cc1ccc(OCc2ccccc2)cc1)C(=O)NCC1CCC2CCCC(C2)C1 (stereo not shown) [Compound II],inhibit binding,Compound II(antagonist),,,,
BLC: the CXC chemokine BLC,,,"lower affinity; also recorded: of lesser affinity, also bound well",potential lower affinity,,
CC1CCCCN1CCCN(Cc1ccc(OCc2ccccc2)cc1)C(=O)Nc1ccc(Cl)c(Cl)c1 (stereo not shown) [Compound I],inhibit binding,Compound I(antagonist),,,,
"MCP-4: chemokine, did not cause receptor internalization",,,,,did not cause internalization,
CCC(c1nc2ccccc2c(=O)n1C)N(Cc1ccco1)C(=O)Nc1cccc(C(F)(F)F)c1 (stereo not shown) [Compound III],enhance binding,Compound III(agonist),,,,
B1,,,high affinity,,Internalization of the receptor was observed,
B2,,,high affinity,bound well,Internalization of the receptor was observed,effect of soluble chemokine on ELC-SK mediated adhesion of HEK293-CCX CKR cells (CCX CKR [1]): significant reduction; also recorded: ablation of adhesion; binding in homologous competition of radiolabeled with unlabeled chemokine (CCX CKR [6]): Nearly identical results
B3,,,lower affinity,moderately,,
B4,,,moderate to low affinity,potential lower affinity,,"affinity of binding to CCX CKR, in words (CCX CKR [3]; listed as vMIPII): lower affinity"
